Target: T1, His-tagged CD40 antigen (human, UniProt P25942 21-193, limits assumed)
T1 construct: Captured on an anti-His antibody on a CM5 chip; not shown: His tag
Test: SPR, Biacore T200, CM5 chip, His-tagged CD40 captured on anti-His antibody
Excerpt: That is, the anti-His antibody was immobilized on the surface of the CM5 sensor chip by an amine coupling method. His-tagged CD40 antigen was captured by reacting the His-tagged CD40 antigen with the antibody and then the captured antigen was reacted with sensor chip coated with an anti-his antibody. The results were read using biocore T200 (GE Healthcare).

T1 sequence (P25942 21-193 limits assumed): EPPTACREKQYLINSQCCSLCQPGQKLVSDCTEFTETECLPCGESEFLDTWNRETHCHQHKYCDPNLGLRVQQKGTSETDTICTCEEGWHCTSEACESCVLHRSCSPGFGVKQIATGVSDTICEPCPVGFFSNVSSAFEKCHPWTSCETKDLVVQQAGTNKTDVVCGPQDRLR

- Kd: 0.494 nM
- koff: 0.000234 s⁻¹
- kon: 474000 M⁻¹ s⁻¹
B1: anti-CD40 antibody RM8G-1 (antibody, V domains shown)
VH: LVQLKESGPGLVAPSQSLSITCTVSGFSLTDYGVGWIRQPPGKDLEWLGVMWGGGRTYYNAPLKSRLSISKDNSKSQVFLKMNSLQTDDTAMYYCVKTGQDYAVDYWGQGTSVTVSS
VL: DIVLTQSPASLAVSLGQRATISCRASKSVSTSAYSYMHWYQQKPGQPPKLLIYLASNLESGVPARFSGSGSGTDFTLNIHPVEEEDAATYYCQHSWDLPYTFGGGTKLEIK
notes: Mouse monoclonal antibody from hybridoma RM8G1 (KCLRF-BP-00336); also called RM RM8G-1; anti-CD40 RM8G-1

From patent US20200291123A1 (PB IMMUNE THERAPEUTICS, published 2020)
